B1: proHCPB: proHCPB expressed from COS-7 cells (plasmid pMF49), activated with trypsin (protein, UniProt P15086 16-417, looked up)
pro-form: HHGGEHFEGEKVFRVNVEDENHINIIRELASTTQIDFWKPDSVTQIKPHSTVDFRVKAEDTVTVENVLKQNELQYKVLISNLRNVVEAQFDSRVRATGHSYEKYNKWETIEAWTQQVATENPALISRSVIGTTFEGRAIYLLKVGKAGQNKPAIFMDCGFHAREWISPAFCQWFVREAVRTYGREIQVTELLDKLDFYVLPVLNIDGYIYTWTKSRFWRKTRSTHTGSSCIGTDPNRNFDAGWCEIGASRNPCDETYCGPAAESEKETKALADFIRNKLSSIKAYLTIHSYSQMMIYPYSYAYKLGENNAELNALAKATVKELASLHGTKYTYGPGATTIYPAAGGSDDWAYDQGIRYSFTFELRDTGRYGFLLPESQIRATCEETFLAIKYVASYVLEHLY
modifications: pro-form
B2: HCPB: mature HCPB in supernatant of COS-7 cells co-transfected with preHCPB and prepro sequence plasmids (protein, UniProt P15086 111-417, looked up)
Carboxypeptidase B: ATGHSYEKYNKWETIEAWTQQVATENPALISRSVIGTTFEGRAIYLLKVGKAGQNKPAIFMDCGFHAREWISPAFCQWFVREAVRTYGREIQVTELLDKLDFYVLPVLNIDGYIYTWTKSRFWRKTRSTHTGSSCIGTDPNRNFDAGWCEIGASRNPCDETYCGPAAESEKETKALADFIRNKLSSIKAYLTIHSYSQMMIYPYSYAYKLGENNAELNALAKATVKELASLHGTKYTYGPGATTIYPAAGGSDDWAYDQGIRYSFTFELRDTGRYGFLLPESQIRATCEETFLAIKYVASYVLEHLY

Assay: HCPB activity of COS-7 cell supernatants against Hipp-Arg (5 h assay)
Format: biochemical
Details: COS-7 cell supernatant 250 μl
Procedure: Measurements were carried out at 37° C. in 0.25 mM Tris HCl buffer, pH 7.5 using 1 cm path length cuvettes in a total volume of 1.0 ml using a Perkin Elmer Lambda 2 spectrophotometer. Km and Vmax values were calculated using the ENZFITTER software programme (Biosoft, Perkin Elmer). Kcat was calculated from Vmax by dividing by the enzyme concentration in the reaction mixture.
For expression in eukaryotic cells, vectors containing genes capable of expressing preHCPB and the prepro sequence were cotransfected into COS-7 cells. COS cells are an African green monkey kidney cell line, CV-1, transformed with an origin-defective SV40 virus and have been widely used for short-term transient expression of a variety of proteins because of their capacity to replicate circular plasmids containing an SV40 origin of replication to very high copy number. There are two widely available COS cell clones, COS-1 and COS-7. The basic methodology for transfection of COS cells is described by Bebbington in Methods: A Companion to Methods in Enzymology (1991) 2, p. 141. […] Cell supernatants (250 μl) were analysed for HCPB activity against Hipp-Arg (5 h assay) as described in Reference Example 3. […]

| Molecule | hydrolysis of the Hipp-Arg substrate (after activation with trypsin 700 μg/ml) | Hipp-Arg substrate hydrolysed (co-transfection with prepro sequence) [%] |
| --- | --- | --- |
| B1 | complete hydrolysis |  |
| B2 |  | 61 |
